# Patent US20020091083, “DNA-binding protein YB-1-containing collagen accumulation inhibitors” (Sumitomo Chemical Company, Ltd., published 2002)
# Where a chain is given by its changes, count along the chain named.
# B1: COL1A2 promoter binding probe (dsDNA)
# DNA 1: CCCCCCATTCGCTCCCTCCTCTGCGCCCCCGCAGGCTC
# DNA 2: GAGCCTGCGGGGGCGCAGAGGAGGGAGCGAATGGGGGG
# B2: COL1A2 promoter non-binding probe (dsDNA)
# DNA 1: B1 DNA 1 with C5G, C6G
# DNA 2: B1 DNA 2 with G33C, G34C
# Biological target: YB-1 (DNA-binding protein) (Homo sapiens, UniProt P67809 SEQ:1-317)
# Sequence (P67809 other isoform, or with tags, fused parts or gaps): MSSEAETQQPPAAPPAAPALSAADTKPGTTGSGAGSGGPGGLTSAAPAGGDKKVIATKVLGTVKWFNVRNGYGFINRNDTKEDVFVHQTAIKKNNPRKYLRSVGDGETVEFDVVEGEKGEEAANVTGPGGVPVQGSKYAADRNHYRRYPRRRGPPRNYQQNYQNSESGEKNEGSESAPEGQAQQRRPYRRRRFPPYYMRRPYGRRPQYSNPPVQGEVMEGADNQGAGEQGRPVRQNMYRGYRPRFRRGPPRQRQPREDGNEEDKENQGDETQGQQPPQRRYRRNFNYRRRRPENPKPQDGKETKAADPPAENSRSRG
# Test: EMSA; 200 ng protein, 1 ug poly dI-dC, on ice 30 min
# Conditions: tags: His tag (pET-28a(+), Ni-NTA purified from E. coli BL21-GOLD(DE3)); label: 32P 5' end
# Method: An oligonucleotide consisting of the nucleotide sequence represented by SEQ ID No:.3 was mixed with an oligonucleotide consisting of the nucleotide sequence complementary with its nucleotide sequence, and this oligonucleotide mixture was boiled for 5 minutes and then allowed to stand at room temperature. Then this oligonucleotide mixture in an amount corresponding to 10 pmol DNA, 2 μl of a T4 kinase buffer, 1 μl of T4 kinase and 6 μl of γ-³²P-ATP(>3000 Ci/mmol, DAIICHI KAGAKU YAKUHIN, Catalog No.NEG-502A) were mixed with distilled water to make the total volume 20 μl, which was then kept at 37° C. for 1 hour. This mixture was loaded onto Quick Spin Column G-25 (Boehringer, Catalog No.1273949). This column was centrifuged (2,500 rpm, 5 minutes), and the effluent was recovered. The effluent thus recovered was subjected to a 10% polyacrylamide gel electrophoresis to recover a gel portion containing a ³²P-labelled double-stranded DNA. the gel portion thus recovered was combined with distilled water, kept at 37° C. over one whole day and night, and extracted to obtain the ³²P-labelled DNA (hereinafter referred to as the binding probe). Thus the binding probe was prepared. […]
binder,measurement,value
B1,binding result,binds
B2,binding result,no binding
